As usually defined, the EC50 is the concentration needed to bring the measured effect to its halfway point. Higher therefore signals a less potent agent.

The experiment deals with HIV-1 glycoprotein gp120 (HIV-1) (UniProt P04578). Briefly: ELISA. For orientation: ELISA stands for enzyme-linked immunosorbent assay.

Turning to recombinant 2G12 mAb (IgG1) (antibody), the 50% effective concentration (EC50) was 2.3 pM.

Values taken from article PMC5632219.
